Test results published in patent US20240058275A1, “NANO-SILICA - IN YEAST PARTICLE (YP) DRUG ENCAPSULATION APPROACH FOR IMPROVED THERMAL AND HYDROLASE STABILITY OF YP DRUG DELIVERY FORMULATIONS” (UNIVERSITY OF MASSACHUSETTS, priority 2022, published 2024).

Columns and labels:
[1] = Encapsulation efficiency of proteins ensilicated in GPs with 100% TEOS; type: physicochemical; settings: 100% TEOS prepolymerized at pH 2, SDS-PAGE
Method: Dry GPs were mixed with a solution of 25 mg/mL protein in water (4 μL protein solution per mg GP, 100 μg protein per mg GP), incubated to allow for complete absorption of protein solution inside the hollow cavity of GPs, and then the samples were frozen and lyophilized. To maximize protein incorporation into GPs, the dry GP-OVA samples were hydrated with 2 μL water per mg GP, mixed, frozen, and lyophilized. TEOS (Millipore Sigma, Burlington, MA, USA; #86578, ≥99% purity, density 0.933 g/mL) was mixed with a 0.01 M HCl (pH 2) solution at a volume ratio of 2:1 (v/v) aqueous HCl:TEOS and the sample was incubated at 20° C. with constant mixing for one hour to allow for partial polymerization of TEOS. Then, the partially polymerized single phase TEOS solution was added to dry GP-protein (4 μL per mg GP) and the sample was incubated for one hour. GP ensilicated protein samples were suspended in 0.9% sterile saline (5 mg GP/mL), centrifuged and the supernatants were collected to quantify unencapsulated protein. The samples were then washed three more times in 0.9% sterile saline, suspended in 0.9% saline at 5 mg GP/mL and stored at 20° C.
GP ensilicated protein was extracted and quantified by following the procedure described above for BSA. Proteins in the GP supernatants and pellets were quantified by SDS-PAGE.

[2] = Ensilication (trapping) efficiency of BSA within GPs, quantified by SDS-PAGE; type: physicochemical; settings: TEOS pre-polymerized at pH 2, TEOS:rBSA ratios of 1.3 to 24.9
Method: The efficiency of ensilication of BSA within GPs was tested. […] The samples were mixed, incubated at room temperature for 30 minutes, frozen and lyophilized to remove solvent. The loading cycle was repeated by adding 10 μL of water to the dry fGP rBSA sample to draw payload within the matrix of the GP shell into the hollow GP cavity, the sample was mixed and lyophilized to remove solvent.
TEOS was mixed with 0.01 M HCl solution (pH 2). The mixture was mixed for 1 hour to achieve TEOS prepolymerization and formation of a single aqueous phase in which the TEOS was close to its gel point. Solutions with different ratios of TEOS and 0.01 M HCl were prepared to target TEOS:rBSA weight ratios from 0 to 24.9. […]
The ensilicated fGP-rBSA samples were washed three times with 0.9% saline. The ensilicated fGP rBSA pellets were evaluated by microscopy to assess efficient trapping of rBSA within the cavity of fGPs, and percent protein encapsulation was quantified by SDS-PAGE. […]
Acid catalyzed TEOS forms long, linear polymers that easily entangle and gel. […] The percent of BSA trapped in GPs was measured as described above.
GPs containing ensilicated fBSA were also prepared as described before at the optimal TEOS polymerization conditions with 0.01 M HCl (pH 2) for use as control. Percent of BSA trapped in GPs was measured as described above.

Row | Molecule | % encapsulation efficiency in GPs [1] [%] | percent of rBSA trapped in fGPs [2] [%]
1 | Transferrin: transferrin protein payload | 92 ± 8 | –
2 | rBSA: rhodamine labeled BSA payload | – | > 80
3 | Ovalbumin: ovalbumin protein payload (protein, UniProt P01012 2-386, looked up) Ovalbumin: GSIGAASMEFCFDVFKELKVHHANENIFYCPIAIMSALAMVYLGAKDSTRTQINKVVRFDKLPGFGDSIEAQCGTSVNVHSSLRDILNQITKPNDVYSFSLASRLYAEERYPILPEYLQCVKELYRGGLEPINFQTAADQARELINSWVESQTNGIIRNVLQPSSVDSQTAMVLVNAIVFKGLWEKAFKDEDTQAMPFRVTEQESKPVQMMYQIGLFRVASMASEKMKILELPFASGTMSMLVLLPDEVSGLEQLESIINFEKLTEWTSSNVMEERKIKVYLPRMKMEEKYNLTSVLMAMGITDVFSSSANLSGISSAESLKISQAVHAAHAEINEAGREVVGSAEAGVDAASVSEEFRADHPFLFCIKHIATNAVLFFGRCVSP | 97 ± 3 | –
